For two molecules, Ki results are on record in EP0323740A2, “Linear analogs of atrial natriuretic peptides” (CALIFORNIA BIOTECHNOLOGY, INC., priority 1987, dated 1989).

A value given as a limit tells only on which side of the number the result lay.

In the assay the target is T1, ANP-receptor (Bos taurus, UniProt P10730).
T1 construct: endogenous in cells; host or cells: cultured BASM cells
T1 sequence (P10730 42-537): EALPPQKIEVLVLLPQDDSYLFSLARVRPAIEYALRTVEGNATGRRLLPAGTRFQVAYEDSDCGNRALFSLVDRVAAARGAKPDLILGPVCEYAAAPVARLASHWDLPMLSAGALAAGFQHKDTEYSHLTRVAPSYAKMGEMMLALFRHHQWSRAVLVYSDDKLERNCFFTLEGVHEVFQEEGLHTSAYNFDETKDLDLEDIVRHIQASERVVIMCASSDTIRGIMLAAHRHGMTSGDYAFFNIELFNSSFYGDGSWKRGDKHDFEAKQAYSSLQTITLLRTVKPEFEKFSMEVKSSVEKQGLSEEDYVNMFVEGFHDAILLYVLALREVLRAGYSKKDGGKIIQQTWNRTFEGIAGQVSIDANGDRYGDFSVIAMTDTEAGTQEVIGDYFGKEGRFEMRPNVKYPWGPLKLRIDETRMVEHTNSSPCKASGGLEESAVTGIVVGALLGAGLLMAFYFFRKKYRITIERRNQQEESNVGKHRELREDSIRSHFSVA
The assay can be described thus: competitive displacement receptor binding assay with (¹²⁵I)-rANP(126-150) on cultured cells. Particulars: concentration of unlabeled peptide displacing 50% of maximal binding of 0.5 nM (¹²⁵I)-rANP(126-150); BASM cells; read-out: Ki(app). Details: species or system bovine. An excerpt: Analogous "competitive displacement" receptor binding assays are considered commonplace in the art for examining specific ligand-receptor interactions.
Assuming these ANP analogs act at one or more ANP receptor sites, then increased receptor affinity should reflect increased biological potency.

Turning to parathyroid hormone, the Ki was > 500 nM.
Next, `CC[C@H](C)[C@H](NC(=O)[C@H](Cc1ccc(O)cc1)NC(=O)[C@@H](NC(=O)[C@H](CCCNC(=N)N)NC(=O)[C@@H](N)CC(=O)O)C(C)C)C(=O)N[C@@H](Cc1cnc[nH]1)C(=O)N1CCC[C@H]1C(=O)N[C@@H](Cc1ccccc1)C(=O)O` [angiotensin II]: > 500 nM.
